Source: the supplement of paper PMC9170038

Test system: MS2 coat protein
Assay: apparent KD of MS2 coat protein; designed switch direction (-1 OFF switch, 1 ON switch): 1; higher = weaker reporter binding
Method in brief: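 Stalled E. coli RNA polymerase transcribed designed RNA switches on Illumina chips, which were then titrated with SNAP-549-labelled MS2 coat protein, doubling from 0.7 or 1.5 nM to 3 µM. Steps lasted from 0.8–1.5 h at the lowest concentration to 10–20 min at the highest. The apparent KD is each design's median over clusters of curve-fitted normalised fluorescence.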

[1] = input ligand: microRNA oligo, concentration not stated
[2] = Eterna round: R95, input ligand: FMN 200 uM
[3] = Eterna round: R95, input ligand: microRNA oligo, concentration not stated
[4] = Eterna round: R95, input ligand: none

| Sequence | apparent KD of MS2 coat protein (input ligand: FMN 200 uM) | apparent KD of MS2 coat protein [1] | apparent KD of MS2 coat protein (input ligand: none) | apparent KD of MS2 coat protein [2] | apparent KD of MS2 coat protein [3] | apparent KD of MS2 coat protein [4] |
| --- | --- | --- | --- | --- | --- | --- |
| AUAAAUAACACAGGAUAUCCGCACGGGUAGUGCGGAGAAGGGUGAACGUCGGCUCUCGCCAACAUGAGGAUCACCCAUGUAAAG [Letiusle] (Eterna round: R96, puzzle: Same State NG 1) | 512 nM | 27.7 nM | 41.1 nM |  |  |  |
| UUUAGAUCGCGAGGAUAUCGCGAGGAUCACCCGUGAGAAGGCGCAGAGCCGAGGAUCACCCGGCUGAUCCUGAGAAGGAGGUCU (Eterna round: R96, puzzle: Same State NG 1) | 45.1 nM | 87.7 nM | 129 nM |  |  |  |
| UUAAUUAUGUAAGGAUAUACAUGAGGAUUUCUCGUAGAAGGUACAUUACAUGAGGAUCACCCAUGUAGGUGUCCGUAGACGCCA [JL SSNG1 1.07] (Eterna round: R96, puzzle: Same State NG 1) | 142 nM | 78.3 nM | 129 nM |  |  |  |
| GAAUAAGUUUACGAGGAUAUGUUCCGCAUAACAUGAGGAUCACCCAUGUGAACAAGAAAGGCGACGCAGAAGGCGUGAGCAGAAG [Mat - Same State 2 - Mod of UCT - D100] (puzzle: Same State 2) |  |  |  | 23 nM | 11.4 nM | 117 nM |
| UAGUGCAUUAGAGGAUAUUCUUACGACACGAGUAAGACAUGAGGAUCACCCAUGUCGUGGCAUGGGAAGAAGGCUGAUGUGCUA [Omei SS(NG)2 Bv7] (Eterna round: R96, puzzle: Same State NG 2) | 14.4 nM | 11.1 nM | 34.7 nM |  |  |  |
| AGGCUCAGACGAGGAUAUGGUCAUGGCGCUUCGGCGCAUACAUGAGGAUCACCCAUGUAGGGUGAUCAGAAGGUGUCUGAGCCA [SSNG2/9-B1] (Eterna round: R96, puzzle: Same State NG 2) | 171 nM | 720 nM | 892 nM |  |  |  |
| ACAUGAGGAUCACCCAUGUAUGCUCAGGAAACUGUGCAGCAUGAGGAUAUGGAUCCUAAUUGGAUCCAGAAGGCGUGAAUUAUU [Fiskers NG3ss - 25] (Eterna round: R96, puzzle: Same State NG 3) | 507 nM | 692 nM | 2520 nM |  |  |  |
| GUGGUUCUCGUAGGAUAUGUAGGAUAUGCCUACAUGAGGAUCACCCAUGUUCGCAUGGCAGAAGGACAGAAGGACGAUCACUAA [pwkr ssNG2 2FMN + 1F5.15] (Eterna round: R96, puzzle: Same State NG 2) | 159 nM | 11.7 nM | 94.2 nM |  |  |  |
| UGUUAACAUGAGGAUCACCCAUGUCAAAUGAAUCGAGGAUAUGGUAAGUAAUAAGAUAAUCUAGAAGGCGAAGUUG [Altered State 1-23 - Jieux - Same State 1] (puzzle: Same State 1) |  |  |  | 42.6 nM | 55.8 nM | 58 nM |
| UGUUAGUAGACAGGAUAUUGAAUGUUAAGUAUUAACAUGAGGAUCACCCAUGUAUUAGAUUGGUACAAGAAGGGUCAAGUAAGU [JR_SSNG2_Sub011] (Eterna round: R96, puzzle: Same State NG 2) | 380 nM | 540 nM | 247 nM |  |  |  |
| CUGAGCAAUCGAGGAUAUCACGUCGUUUAGACGUGAGAAGGCGAUCAUAACAUGAGGAUCACCCAUGUAUUACAUGAAGCUCAG [SSNG1/4-A3] (Eterna round: R96, puzzle: Same State NG 1) | 13.6 nM | 10.1 nM | 13.3 nM |  |  |  |
| UUAAUGAUGAUAGGAUAUACAUGAGGAAUUCUCGUAGAAGGAUCAUGACAUGAGGAUCACCCAUGUAUCGCUCGAAAGAGCGUA [Mat - Same State NG 1 - JL mod - D33] (Eterna round: R96, puzzle: Same State NG 1) | 570 nM | 234 nM | 205 nM |  |  |  |
